Assay results reported in patent publication US20240261333A1 (published 2024).

Legend:
[1] = target: T1, RRP12 (human, UniProt Q5JTH9-3 1-1236, limits assumed); assay: co-IP with anti-FLAG, mass spectrometry; lysate of cells with N-FLAG B3GNT2
T1 construct: also called NP_001138586.1 (+4)
T1 sequence (looked up): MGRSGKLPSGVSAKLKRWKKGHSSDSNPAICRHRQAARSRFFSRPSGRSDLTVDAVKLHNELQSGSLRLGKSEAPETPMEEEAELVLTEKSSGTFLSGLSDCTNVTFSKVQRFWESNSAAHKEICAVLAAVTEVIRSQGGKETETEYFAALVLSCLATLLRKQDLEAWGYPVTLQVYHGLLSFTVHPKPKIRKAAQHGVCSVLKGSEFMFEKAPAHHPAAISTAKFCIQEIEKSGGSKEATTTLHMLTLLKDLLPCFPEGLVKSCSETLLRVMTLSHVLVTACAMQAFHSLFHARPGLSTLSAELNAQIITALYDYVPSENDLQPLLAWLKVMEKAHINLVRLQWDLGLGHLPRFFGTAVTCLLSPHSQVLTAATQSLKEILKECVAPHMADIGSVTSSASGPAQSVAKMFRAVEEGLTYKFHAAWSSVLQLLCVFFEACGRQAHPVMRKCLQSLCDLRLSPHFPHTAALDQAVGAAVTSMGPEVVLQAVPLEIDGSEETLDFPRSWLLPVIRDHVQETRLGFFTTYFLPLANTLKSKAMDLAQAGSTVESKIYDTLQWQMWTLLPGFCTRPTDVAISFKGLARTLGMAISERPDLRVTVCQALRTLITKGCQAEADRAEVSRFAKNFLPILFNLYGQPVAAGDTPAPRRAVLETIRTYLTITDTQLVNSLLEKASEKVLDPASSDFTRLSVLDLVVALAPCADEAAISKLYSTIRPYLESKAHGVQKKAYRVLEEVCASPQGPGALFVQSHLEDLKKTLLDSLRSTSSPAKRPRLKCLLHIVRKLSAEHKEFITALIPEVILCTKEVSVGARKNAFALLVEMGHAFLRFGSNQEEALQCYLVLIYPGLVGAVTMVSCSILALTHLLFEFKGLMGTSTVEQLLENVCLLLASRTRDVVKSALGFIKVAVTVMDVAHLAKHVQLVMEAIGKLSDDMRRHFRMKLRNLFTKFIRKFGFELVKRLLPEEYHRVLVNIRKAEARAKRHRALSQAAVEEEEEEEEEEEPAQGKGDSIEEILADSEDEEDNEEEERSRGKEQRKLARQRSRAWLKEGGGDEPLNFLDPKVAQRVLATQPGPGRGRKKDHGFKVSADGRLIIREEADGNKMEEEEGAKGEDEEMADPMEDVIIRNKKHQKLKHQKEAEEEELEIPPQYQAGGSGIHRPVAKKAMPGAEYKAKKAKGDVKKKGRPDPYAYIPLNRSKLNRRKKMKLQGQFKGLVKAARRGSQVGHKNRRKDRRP
Experimental: (§1) Cells were plated in 10-cm cell culture dishes and grown to 60-80% confluency. For each condition, two biological replicates were harvested for co-IP. Cells were washed with PBS and 4 mL of lysis buffer (20 mM HEPES, 1% Triton X-100, 150 mM NaCl, 1 mM EDTA, and 10% glycerol) containing protease inhibitor cocktail was added. Cells were scraped and lysate was incubated at 4° C. under rotary agitation for 1 h. Lysate was centrifuged at 14,000×g for 10 min at 4° C. Supernatant was transferred to a new tube and an aliquot was taken as the input. […] For Western blots, 10 μg/mL Chicken Anti-FLAG (Aves labs ET-DY100) and IgY control (R&D Systems AB-101-C) antibodies were biotinylated (Thermo Fisher Scientific 90407) and added to the respective conditions. Lysates with antibodies were incubated at 4° C. under rotary agitation overnight. For each mL of lysate, 50 μL of Pierce Protein A/G Magnetic Beads (Mass spectrometry; Thermo Fisher Scientific 88803) or Pierce Streptavidin Magnetic Beads (Western blot; Thermo Fisher Scientific 88817) was washed twice with lysis buffer. Lysates with antibodies were added to the beads and incubated at 4° C. under rotary agitation for 4 h. Beads were washed with lysis buffer 3 times and resuspended in lysis buffer for storage.
(§2) Magnetic beads were resuspended in 100 mM Tris pH 7.8, reduced, alkylated and digested with trypsin at 37° ° C. overnight. This solution was subjected to solid phase extraction to concentrate the peptides and remove unwanted reagents followed by injection onto a Shimadzu HPLC with fraction collector. Eight fractions were collected and after concentration were injected on a Waters NanoAcquity HPLC equipped with a self-packed Aeris 3 μm C18 analytical column 0.075 mm by 20 cm, (Phenomenex). Peptides were eluted using standard reverse-phase gradients. The effluent from the column was analyzed using a Thermo Orbitrap Elite mass spectrometer (nanospray configuration) operated in a data dependent manner for 54 minutes. The resulting fragmentation spectra were correlated against the known database using Proteome Discover 1.4 (Thermo Fisher Scientific).

[2] = target: T2, IPO13 (human, UniProt O94829 1-963); assay: as above
T2 construct: also called NP_055467.3
T2 sequence (looked up): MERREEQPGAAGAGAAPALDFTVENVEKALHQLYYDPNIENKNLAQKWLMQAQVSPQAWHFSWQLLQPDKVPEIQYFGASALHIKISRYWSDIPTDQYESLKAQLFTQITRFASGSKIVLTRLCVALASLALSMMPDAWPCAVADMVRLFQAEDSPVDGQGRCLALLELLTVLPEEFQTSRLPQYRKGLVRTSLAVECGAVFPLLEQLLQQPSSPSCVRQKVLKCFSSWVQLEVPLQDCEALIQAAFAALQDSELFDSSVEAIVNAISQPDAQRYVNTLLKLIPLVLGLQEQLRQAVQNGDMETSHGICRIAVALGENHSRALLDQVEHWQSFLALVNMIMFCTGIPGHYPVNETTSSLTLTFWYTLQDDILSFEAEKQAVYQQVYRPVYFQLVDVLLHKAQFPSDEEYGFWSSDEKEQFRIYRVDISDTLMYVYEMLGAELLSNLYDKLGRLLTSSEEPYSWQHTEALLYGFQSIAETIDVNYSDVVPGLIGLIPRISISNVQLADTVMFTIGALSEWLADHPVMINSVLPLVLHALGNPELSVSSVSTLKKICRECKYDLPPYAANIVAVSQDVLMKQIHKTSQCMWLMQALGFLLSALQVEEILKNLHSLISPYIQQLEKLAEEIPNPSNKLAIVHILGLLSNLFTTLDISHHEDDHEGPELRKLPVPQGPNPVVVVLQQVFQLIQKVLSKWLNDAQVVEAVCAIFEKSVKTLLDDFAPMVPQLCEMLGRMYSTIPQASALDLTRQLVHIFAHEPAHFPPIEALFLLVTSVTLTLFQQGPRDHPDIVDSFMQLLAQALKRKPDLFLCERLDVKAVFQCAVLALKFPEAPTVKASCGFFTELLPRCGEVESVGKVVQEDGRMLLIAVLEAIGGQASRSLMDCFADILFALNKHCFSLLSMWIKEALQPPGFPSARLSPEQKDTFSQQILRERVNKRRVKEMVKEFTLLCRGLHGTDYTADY
Experimental: as §1, §2

B1: N-terminal FLAG tagged B3GNT2 (enzyme, human, UniProt Q9NY97 1-397, looked up)
chain: MSVGRRRIKLLGILMMANVFIYFIMEVSKSSSQEKNGKGEVIIPKEKFWKISTPPEAYWNREQEKLNRQYNPILSMLTNQTGEAGRLSNISHLNYCEPDLRVTSVVTGFNNLPDRFKDFLLYLRCRNYSLLIDQPDKCAKKPFLLLAIKSLTPHFARRQAIRESWGQESNAGNQTVVRVFLLGQTPPEDNHPDLSDMLKFESEKHQDILMWNYRDTFFNLSLKEVLFLRWVSTSCPDTEFVFKGDDDVFVNTHHILNYLNSLSKTKAKDLFIGDVIHNAGPHRDKKLKYYIPEVVYSGLYPPYAGGGGFLYSGHLALRLYHITDQVHLYPIDDVYTGMCLQKLGLVPEKHKGFRTFDIEEKNKNNICSYVDLMLVHSRKPQEMIDIWSQLQSAHLKC
notes: Bait of the co-IP; pulled down with mouse anti-FLAG (Millipore Sigma F3165) from cell lysate; also called N-FLAG B3GNT2; N-term FLAG; not shown: N-terminal FLAG tag
co-IP mass spectrometry count [1]: 0
co-IP mass spectrometry count [2]: 0
